Results reported in patent US12064469B2, “Stable peptide compositions” (TearSolutions, Inc., priority 2017, dated 2024).
Entries after “also recorded” stand apart in the source; their conditions may differ.

Assay: Comparative Lacripep stability in PBS vs citrate buffer at 60° C. by MALDI TOF mass spectrometry
Assay type: physicochemical
Details: 2 weeks
Description: FIGS. 1A and 1B illustrate the stability of Lacripep™ (SEQ ID NO: 1) (0.001%) in phosphate buffered saline (PBS), pH 4.5 and 7.0. The Lacripep™ solutions were analyzed by MALDI TOF mass spectrometry at time 0 (FIG. 1A) and after two weeks (FIG. 1B) at 60° C.
The Lacripep™ solutions were analyzed by MALDI TOF mass spectrometry at time 0 (FIG. 2A) and after two weeks (FIG. 2B) at 60° C.
Lacripep™ (SEQ ID NO. 1) stability was assessed in PBS at pH 4.5 and 7.0 (FIG. 1) and citrate buffer at pH 6.0 and 6.5 (FIG. 2). The initial concentration of Lacripep™ was 0.001%, and each trial was run at 60° C. The stability was assessed using MALDI TOF mass spectrometry at the initiation of the experiment (week 0, FIGS. 1A and 2A) and after two weeks (week 2, FIGS. 1B and 2B).

Substance: Ac-Lys-Gln-Phe-Ile-Glu-Asn-Gly-Ser-Glu-Phe-Ala-Gln-Lys-Leu-Leu-Lys-Lys-Phe-Ser-NH2 (Ac-KQFIENGSEFAQKLLKKFS-NH2; listed as Homo sapiens) [Lacripep™]
- stability (Lacripep peak, MALDI TOF) (PBS pH 4.5, 0.001% Lacripep): significant degradation; also recorded: a degradation product becomes apparent; also recorded: An additional degradation product is seen
- stability (Lacripep peak, MALDI TOF) (PBS pH 7.0, 0.001% Lacripep): significant degradation; also recorded: a degradation product becomes apparent
- stability (Lacripep peak, MALDI TOF) (citrate buffer pH 6.0, 0.001% Lacripep): no change in the intensity of the Lacripep™ peak
- stability (Lacripep peak, MALDI TOF) (citrate buffer pH 6.5, 0.001% Lacripep): no change in the intensity of the Lacripep™ peak
